Experimental data reported in paper PMC6353796, “Thermostable Branched-Chain Amino Acid Transaminases From the Archaea Geoglobus acetivorans and Archaeoglobus fulgidus: Biochemical and Structural Characterization” (Frontiers in Bioengineering and Biotechnology, 2019).

B1: GEO1900 (Geoglobus acetivorans) (protein)
chain: MSELLVYMNGEFVPESQAKVSVFDHGFLYGDGVFEGIRAYNGKVFKLYEHIDRLYDCARVIDLKIPLSKEEFAEAILETLRRNNLRDAYIRPIVTRGAGDLGLDPRKCPSPNVIIITKPWGKLYGDLYEKGLKAITVAIRRNAIDSLPPNIKSLNYLNNILAKIEANAKGGDEAIFLDHNGYISEGSGDNIFIVKNGTITTPPTLNNLKGITRQVVIELINELEIPFREANIGLFDLYSADEIFVTGTAAEIAPVTYIDGRTVGNGKPGKVTKMLMEKFRERTENEGVEIYR
notes: mainly homodimer in solution, hexamer in crystal; catalytic Lys152
B2: AF0933 (Archaeoglobus fulgidus DSM 4304) (protein)
chain: MLYVYMDGEFVPENEAKVSIFDHGFLYGDGVFEGIRAYNGRVFRLKEHIDRLYDSAKAIDLEIPITKEEFMEIILETLRKNNLRDAYIRPIVTRGIGDLGLDPRKCQNPSIIVITKPWGKLYGDLYEKGLTAITVAVRRNSFDALPPNIKSLNYLNNILAKIEANAKGGDEAIFLDRNGYVSEGSGDNIFVVKNGAITTPPTINNLRGITREAVIEIINRLGIPFKETNIGLYDLYTADEVFVTGTAAEIAPIVVIDGRKIGDGKPGEITRKLMEEFSKLTESEGVPIYE

Assays:
[1] = substrate: CC(=O)C(=O)O; experiment: steady-state kinetics of overall transamination, Michaelis-Menten fit; assay type: biochemical, Geoglobus acetivorans; details: 5 mM L-Leu co-substrate; extrapolated
Description: steady-state kinetics of overall transamination, Michaelis-Menten fit on GEO1900 | For GEO1900 the extrapolated Vmax and Km values for pyruvate and AKG were […]

[2] = substrate: O=C(O)CCC(=O)C(=O)O; experiment: steady-state kinetics, GluDH-coupled discontinuous assay; assay type: biochemical, Geoglobus acetivorans; details: 5 mM L-Leu co-substrate, 50 mM phosphate pH 8.0, 100 mM NaCl, 60 μM PLP, 65°C
Description: steady-state kinetics, GluDH-coupled discontinuous assay on GEO1900 | For GEO1900 the extrapolated Vmax and Km values for pyruvate and AKG were […]

purified protein [3] = substrate: CC[C@H](C)C(=O)C(=O)O; experiment: purified protein; details: 10 mM L-glutamate, 0.1 M Tris-HCl pH 8, 0.1 mM PLP, 70°C
purified protein [4] = substrate: CC(C)CC(=O)C(=O)O; experiment: purified protein; details: 10 mM L-glutamate, 0.1 M Tris-HCl pH 8, 0.1 mM PLP, 70°C
purified protein [5] = substrate: CC(C)C(=O)C(=O)O; experiment: purified protein; details: 10 mM L-glutamate, 0.1 M Tris-HCl pH 8, 0.1 mM PLP, 70°C

Protein | Km [1] | Km [2] | Km (purified protein [3]) | Vmax (purified protein [3]) | kcat/Km (purified protein [3]) | Km (purified protein [4]) | Vmax (purified protein [4]) | kcat/Km (purified protein [4]) | Km (purified protein [5]) | Vmax (purified protein [5]) | kcat/Km (purified protein [5])
B1 | 10600 ± 1900 µM | 1900 ± 600 µM | – | – | – | – | – | – | – | – | –
B2 | – | – | 130 µM | 3.9 µmol/min/mg | 17700 M⁻¹ s⁻¹ | 250 µM | 5.5 µmol/min/mg | 13000 M⁻¹ s⁻¹ | 420 µM | 6.3 µmol/min/mg | 8850 M⁻¹ s⁻¹
